The source of these data is patent US20200031915A1, “IMMUNOGLOBULIN-BINDING PEPTIDE WITH IMPROVED STABILITY” (KANEKA CORPORATION, priority 2017, published 2020).

The data set has as its target T1, Fab fragment of humanized monoclonal IgG (Infliximab) (Homo sapiens, UniProt P01834+P01857).
T1 construct: fragmented into a Fab fragment and an Fc fragment by using papain, and the Fc fragment and Fab fragment were purified; purchased Mitsubishi Tanabe Pharma Corporation Remicade (Infliximab)
As to the kind of experiment: Residual Fab-binding activity of GB1#-N08K after alkali treatment (Biacore SPR). The following applies: 15 mM NaOH final (0.1 mL of 45 mM NaOH added to 0.2 mL of 20 μM peptide), 25° C., 2 hours; ratio to before treatment as 100%; N=4. A general note: In SPR one partner is held on a chip, and binding of the other changes the refractive index at the surface.

T1 sequence (P01857 with tags, fused parts or gaps limits assumed, other chains not shown): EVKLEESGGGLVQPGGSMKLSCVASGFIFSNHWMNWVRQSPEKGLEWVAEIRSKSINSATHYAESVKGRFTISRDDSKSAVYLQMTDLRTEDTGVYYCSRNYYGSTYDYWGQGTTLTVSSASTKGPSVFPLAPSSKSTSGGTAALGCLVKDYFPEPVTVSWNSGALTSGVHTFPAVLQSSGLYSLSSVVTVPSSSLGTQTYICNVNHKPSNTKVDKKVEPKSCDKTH

Turning to “GB1#-N08A: Comparative example: GB1#-Cont (SEQ ID NO: 4) with mutation N08A; amino acid SEQ ID NO: 41 (TTYKLILAGKTLTGYTTTIAVDAATAEKVLKQFANDNGVDGEWTYDDATKTFTVTE; Altered SpG)”, the “residual binding activity to Fab after alkali treatment” value is given as 68%.

In the case of “GB1#-N08K: GB1#-Cont (SEQ ID NO: 4), strong binding ability to Fab, with mutation N08K introduced; amino acid SEQ ID NO: 32 (TTYKLILKGKTLTGYTTTIAVDAATAEKVLKQFANDNGVDGEWTYDDATKTFTVTE; oligo DNA)”, the “residual binding activity to Fab after alkali treatment” value was determined as 80%.
